Assay results published in US20040219615.

Biological target: RAP-2 (RIP-associated protein-2), full-length
Sequence (chain, as listed by the source): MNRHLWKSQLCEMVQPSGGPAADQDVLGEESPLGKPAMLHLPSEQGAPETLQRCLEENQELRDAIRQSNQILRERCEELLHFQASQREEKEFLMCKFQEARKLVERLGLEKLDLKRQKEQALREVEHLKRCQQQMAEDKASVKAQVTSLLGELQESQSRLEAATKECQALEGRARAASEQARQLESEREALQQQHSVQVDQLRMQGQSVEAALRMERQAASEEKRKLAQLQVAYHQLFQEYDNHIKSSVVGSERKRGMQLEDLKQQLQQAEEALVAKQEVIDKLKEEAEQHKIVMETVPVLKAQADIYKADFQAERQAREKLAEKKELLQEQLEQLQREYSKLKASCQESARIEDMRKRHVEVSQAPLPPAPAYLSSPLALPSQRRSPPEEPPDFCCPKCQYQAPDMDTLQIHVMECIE

B1: IKK1 (protein)
chain: MERPPGLRPGAGGPWEMRERLGTGGFGNVCLYQHRELDLKIAIKSCRLELSTKNRERWCHEIQIMKKLNHANVVKACDVPEELNILIHDVPLLAMEYCSGGDLRKLLNKPENCCGLKESQILSLLSDIGSGIRYLHENKIIHRDLKPENIVLQDVGGKIIHKIIDLGYAKDVDQGSLCTSFVGTLQYLAPELFENKPYTATVDYWSFGTMVFECIAGYRPFLHHLQPFTWHEKIKKKDPKCIFACEEMSGEVRFSSHLPQPNSLCSLVVEPMENWLQLMLNWDPQQRGGPVDLTLKQPRCFVLMDHILNLKIVHILNMTSAKIISFLLPPDESLHSLQSRIERETGINTGSQELLSETGISLDPRKPASQCVLDGVRGCDSYMVYLFDKSKTVYEGPFASRSLSDCVNYIVQDSKIQLPIIQLRKVWAEAVHYVSGLKEDYSRLFQGQRAAMLSLLRYNANLTKMKNTLISASQQLKAKLEFFHKSIQLDLERYSEQMTYGISSEKMLKAWKEMEEKAIHYAEVGVIGYLEDQIMSLHAEIMELQKSPYGRRQGDLMESLEQRAIDLYKQLKHRPSDHSYSDSTEMVKIIVHTVQSQDRVLKELFGHLSKLLGCKQKIIDLLPKVEVALSNIKEADNTVMFMQGKRQKEIWHLLKIACTQSSARSLVGSSLEGAVTPQTSAWLPPTSAEHDHSLSCVVTPQDGETSAQMIEENLNCLGHLSTIIHEANEEQGNSMMNLDWSWLTE
Q: For B1, which “in vitro phosphorylation of the immunoprecipitated complex” value is on record?
A: RAP-2 becomes phosphorylated

B2: RIP (receptor interacting protein) (protein)
chain: MQPDMSLNVIKMKSSDFLESAELDSGGFGKVSLCFHRTQGLMIMKTVYKGPNCIEHNEALLEEAKMMNRLRHSRVVKLLGVIIEEGKYSLVMEYMEKGNLMHVLKAEMSTPLSVKGRIILEIIEGMCYLHGKGVIHKDLKPENILVDNDFHIKIADLGLASFKMWSKLNNEEHNELREVDGTAKKNGGTLYYMAPEHLNDVNAKPTEKSDVYSFAVVLWAIFANKEPYENAICEQQLIMCIKSGNRPDVDDITEYCPREIISLMKLCWEANPEARPTFPGIEEKFRPFYLSQLEESVEEDVKSLKKEYSNENAVVKRMQSLQLDCVAVPSSRSNSATEQPGSLHSSQGLGMGPVEESWFAPSLEHPQEENEPSLQSKLQDEANYHLYGSRMDRQTKQQPRQNVAYNREEERRRRVSHDPFAQQRPYENFQNTEGKGTAYSSAASHGNAVHQPSGLTSQPQVLYQNNGLYSSHGFGTRPLDPGTAGPRVWYRPIPSHMPSLHNIPVPETNYLGNTPTMPFSSLPPTDESIKYTIYNSTGIQIGAYNYMEIGGTSSSLLDSTNTNFKEEPAAKYQAIFDNTTSLTDKHLDPIRENLGKHWKNCARKLGFTQSQIDEIDHDYERDGLKEKVYQMLQKWVMREGIKGATVGKLAQALHQCSRIDLLSSLIYVSQN
Q: With B2 as the protein, how does the “in vitro immunocomplex kinase assay” value read?
A: over-expressed RIP did not phosphorylate RAP-2
